Data taken from article PMC9482650, “Quantitative fragmentomics allow affinity mapping of interactomes” (Nature Communications, 2022).
Residue numbers refer to the chain shown, from its start.

T1: GRIP1_4, Q9Y3R0
T1 sequence (Q9Y3R0 467-571, limits assumed, looked up): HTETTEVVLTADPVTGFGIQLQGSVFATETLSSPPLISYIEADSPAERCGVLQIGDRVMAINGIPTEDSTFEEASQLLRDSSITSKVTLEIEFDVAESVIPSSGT

T2: PDZRN3_1, Q9UPQ7
T2 sequence (Q9UPQ7 244-349, limits assumed, looked up): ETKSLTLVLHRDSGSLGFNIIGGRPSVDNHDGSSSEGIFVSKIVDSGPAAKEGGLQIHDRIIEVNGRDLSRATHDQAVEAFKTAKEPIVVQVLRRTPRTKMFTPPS

T3: LIN7B, Q9HAP6
T3 sequence (Q9HAP6 88-185, limits assumed, looked up): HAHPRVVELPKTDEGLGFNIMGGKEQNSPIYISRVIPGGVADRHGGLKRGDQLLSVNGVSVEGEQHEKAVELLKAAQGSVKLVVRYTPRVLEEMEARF

T4: DFNB31_3, Q9P202
T4 sequence (Q9P202 811-907, limits assumed, looked up): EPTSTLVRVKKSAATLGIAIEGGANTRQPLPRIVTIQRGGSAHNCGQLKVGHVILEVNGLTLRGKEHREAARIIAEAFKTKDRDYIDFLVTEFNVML

T5: SNTA1, Q13424
T5 sequence (Q13424 82-180, limits assumed, looked up): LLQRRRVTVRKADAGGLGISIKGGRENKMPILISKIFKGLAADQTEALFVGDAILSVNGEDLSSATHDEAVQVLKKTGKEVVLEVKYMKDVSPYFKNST

T6: HTRA3, P83110
T6 sequence (P83110 354-453, limits assumed, looked up): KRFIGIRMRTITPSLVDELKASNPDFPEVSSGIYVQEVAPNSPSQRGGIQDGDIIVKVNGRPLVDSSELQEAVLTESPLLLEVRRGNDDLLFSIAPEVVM

T7: GRIP1_3, Q9Y3R0
T7 sequence (Q9Y3R0 247-346, limits assumed, looked up): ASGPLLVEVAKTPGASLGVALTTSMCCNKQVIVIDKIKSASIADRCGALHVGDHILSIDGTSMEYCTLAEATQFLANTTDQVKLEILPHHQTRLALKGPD

T8: MPP7, Q5T2T1
T8 sequence (Q5T2T1 134-230, limits assumed, looked up): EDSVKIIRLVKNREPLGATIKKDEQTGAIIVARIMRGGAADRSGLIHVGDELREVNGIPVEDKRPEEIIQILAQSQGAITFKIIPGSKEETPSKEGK

T9: DLG3_3, Q92796
T9 sequence (Q92796 374-475, limits assumed, looked up): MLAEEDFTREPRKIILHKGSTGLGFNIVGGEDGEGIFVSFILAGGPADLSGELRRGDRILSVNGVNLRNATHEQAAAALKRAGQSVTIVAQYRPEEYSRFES

T10: ARHGEF11, O15085
T10 sequence (O15085 42-136, limits assumed, looked up): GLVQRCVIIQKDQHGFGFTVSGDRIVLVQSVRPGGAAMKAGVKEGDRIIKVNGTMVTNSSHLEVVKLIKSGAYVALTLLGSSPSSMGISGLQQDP

T11: DFNB31_1, Q9P202
T11 sequence (Q9P202 135-233, limits assumed, looked up): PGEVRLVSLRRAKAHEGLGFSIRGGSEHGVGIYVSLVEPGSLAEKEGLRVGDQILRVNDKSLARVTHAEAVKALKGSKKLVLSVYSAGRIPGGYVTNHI

T12: LIN7C, Q9NUP9
T12 sequence (Q9NUP9 88-185, limits assumed, looked up): T3 sequence (Q9HAP6 88-185, limits assumed, looked up) with A2S, D13E, V35I, V40I, Q65H, S79K, R89K, A96S

T13: SIPA1L2, Q9P2F8
T13 sequence (Q9P2F8 945-1036, limits assumed, looked up): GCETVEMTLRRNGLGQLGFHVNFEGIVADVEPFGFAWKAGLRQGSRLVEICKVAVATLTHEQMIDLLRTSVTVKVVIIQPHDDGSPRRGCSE


biological target: T1, GRIP1_4, Q9Y3R0; experiment: holdup assay; design: key: below the threshold = too weak to quantify, mostly under pKd 3.1 to 4; conditions: plain residues with an end cap or a label only (N-terminal biotin on a linker: ado-ado)

pKd	Binder
below the threshold	SKQFDKNAYV [CLDN10, P78369]

biological target: GIPC2, Q8TF65; experiment: holdup assay; design: key: below the threshold = too weak to quantify, mostly under pKd 3.1 to 4; conditions: plain residues with an end cap or a label only (N-terminal biotin on a linker: ado-ado)
Sequence (Q8TF65 112-203): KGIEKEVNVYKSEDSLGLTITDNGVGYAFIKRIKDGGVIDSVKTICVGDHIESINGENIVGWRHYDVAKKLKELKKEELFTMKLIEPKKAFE

pKd	Binder
below the threshold	SKQFDKNAYV [CLDN10, P78369]

biological target: T2, PDZRN3_1, Q9UPQ7; experiment: holdup assay; design: key: below the threshold = too weak to quantify, mostly under pKd 3.1 to 4; conditions: plain residues with an end cap or a label only (N-terminal biotin on a linker: ado-ado)

pKd	Binder
below the threshold	SKQFDKNAYV [CLDN10, P78369]

biological target: T3, LIN7B, Q9HAP6; experiment: holdup assay; design: key: below the threshold = too weak to quantify, mostly under pKd 3.1 to 4; conditions: plain residues with an end cap or a label only (N-terminal biotin on a linker: ado-ado)

pKd	Binder
below the threshold	SKQFDKNAYV [CLDN10, P78369]

biological target: NHERF4_2, Q86UT5; experiment: holdup assay; design: key: below the threshold = too weak to quantify, mostly under pKd 3.1 to 4; conditions: plain residues with an end cap or a label only (N-terminal biotin on a linker: ado-ado)
Sequence (Q86UT5 220-308): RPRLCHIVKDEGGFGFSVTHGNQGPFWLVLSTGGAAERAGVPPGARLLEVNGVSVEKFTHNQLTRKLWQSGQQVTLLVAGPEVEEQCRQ

pKd	Binder
below the threshold	SKQFDKNAYV [CLDN10, P78369]

biological target: T4, DFNB31_3, Q9P202; experiment: holdup assay; design: key: below the threshold = too weak to quantify, mostly under pKd 3.1 to 4; conditions: plain residues with an end cap or a label only (N-terminal biotin on a linker: ado-ado)

pKd	Binder
below the threshold	SKQFDKNAYV [CLDN10, P78369]

biological target: GORASP1, Q9BQQ3; experiment: holdup assay; design: key: below the threshold = too weak to quantify, mostly under pKd 3.1 to 4; conditions: plain residues with an end cap or a label only (N-terminal biotin on a linker: ado-ado)
Sequence (Q9BQQ3 1-208): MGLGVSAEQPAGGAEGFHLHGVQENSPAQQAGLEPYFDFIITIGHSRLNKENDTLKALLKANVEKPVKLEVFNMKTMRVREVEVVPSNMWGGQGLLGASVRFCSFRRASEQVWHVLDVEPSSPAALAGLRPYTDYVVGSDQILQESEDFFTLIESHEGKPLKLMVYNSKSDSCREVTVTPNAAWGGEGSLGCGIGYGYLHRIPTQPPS

pKd	Binder
below the threshold	SKQFDKNAYV [CLDN10, P78369]

biological target: T5, SNTA1, Q13424; experiment: holdup assay; design: key: below the threshold = too weak to quantify, mostly under pKd 3.1 to 4; conditions: plain residues with an end cap or a label only (N-terminal biotin on a linker: ado-ado)

pKd	Binder
3.55	SKQFDKNAYV [CLDN10, P78369]

biological target: GORASP2, Q9H8Y8; experiment: holdup assay; design: key: below the threshold = too weak to quantify, mostly under pKd 3.1 to 4; conditions: plain residues with an end cap or a label only (N-terminal biotin on a linker: ado-ado)

pKd	Binder
below the threshold	SKQFDKNAYV [CLDN10, P78369]

biological target: T6, HTRA3, P83110; experiment: holdup assay; design: key: below the threshold = too weak to quantify, mostly under pKd 3.1 to 4; conditions: plain residues with an end cap or a label only (N-terminal biotin on a linker: ado-ado)

pKd	Binder
4.06	SKQFDKNAYV [CLDN10, P78369]

biological target: CASK, O14936; experiment: holdup assay; design: key: below the threshold = too weak to quantify, mostly under pKd 3.1 to 4; conditions: plain residues with an end cap or a label only (N-terminal biotin on a linker: ado-ado)
Sequence (O14936 487-570): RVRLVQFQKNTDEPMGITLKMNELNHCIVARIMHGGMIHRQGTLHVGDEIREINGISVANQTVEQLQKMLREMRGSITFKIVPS

pKd	Binder
below the threshold	SKQFDKNAYV [CLDN10, P78369]

biological target: T7, GRIP1_3, Q9Y3R0; experiment: holdup assay; design: key: below the threshold = too weak to quantify, mostly under pKd 3.1 to 4; conditions: plain residues with an end cap or a label only (N-terminal biotin on a linker: ado-ado)

pKd	Binder
below the threshold	SKQFDKNAYV [CLDN10, P78369]

biological target: T8, MPP7, Q5T2T1; experiment: holdup assay; design: key: below the threshold = too weak to quantify, mostly under pKd 3.1 to 4; conditions: plain residues with an end cap or a label only (N-terminal biotin on a linker: ado-ado)

pKd	Binder
below the threshold	SKQFDKNAYV [CLDN10, P78369]

biological target: T9, DLG3_3, Q92796; experiment: holdup assay; design: key: below the threshold = too weak to quantify, mostly under pKd 3.1 to 4; conditions: plain residues with an end cap or a label only (N-terminal biotin on a linker: ado-ado)

pKd	Binder
below the threshold	SKQFDKNAYV [CLDN10, P78369]

biological target: T10, ARHGEF11, O15085; experiment: holdup assay; design: key: below the threshold = too weak to quantify, mostly under pKd 3.1 to 4; conditions: plain residues with an end cap or a label only (N-terminal biotin on a linker: ado-ado)

pKd	Binder
below the threshold	SKQFDKNAYV [CLDN10, P78369]

biological target: T11, DFNB31_1, Q9P202; experiment: holdup assay; design: key: below the threshold = too weak to quantify, mostly under pKd 3.1 to 4; conditions: plain residues with an end cap or a label only (N-terminal biotin on a linker: ado-ado)

pKd	Binder
below the threshold	SKQFDKNAYV [CLDN10, P78369]

biological target: Inadl_2, Q8NI35; experiment: holdup assay; design: key: below the threshold = too weak to quantify, mostly under pKd 3.1 to 4; conditions: plain residues with an end cap or a label only (N-terminal biotin on a linker: ado-ado)
Sequence (Q8NI35 238-335): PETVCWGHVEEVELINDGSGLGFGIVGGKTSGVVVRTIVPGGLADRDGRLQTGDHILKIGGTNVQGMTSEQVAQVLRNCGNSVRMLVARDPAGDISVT

pKd	Binder
below the threshold	SKQFDKNAYV [CLDN10, P78369]

biological target: GRID2IP_1, A4D2P6; experiment: holdup assay; design: key: below the threshold = too weak to quantify, mostly under pKd 3.1 to 4; conditions: plain residues with an end cap or a label only (N-terminal biotin on a linker: ado-ado)
Sequence (A4D2P6 1-87): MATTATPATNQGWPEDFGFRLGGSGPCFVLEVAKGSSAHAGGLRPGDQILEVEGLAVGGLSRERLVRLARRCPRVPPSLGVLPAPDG

pKd	Binder
below the threshold	SKQFDKNAYV [CLDN10, P78369]

biological target: MAGI2_4, Q86UL8; experiment: holdup assay; design: key: below the threshold = too weak to quantify, mostly under pKd 3.1 to 4; conditions: plain residues with an end cap or a label only (N-terminal biotin on a linker: ado-ado)
Sequence (Q86UL8 772-865): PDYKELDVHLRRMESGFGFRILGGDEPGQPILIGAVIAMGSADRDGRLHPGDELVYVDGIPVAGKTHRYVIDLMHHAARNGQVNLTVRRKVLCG

pKd	Binder
below the threshold	SKQFDKNAYV [CLDN10, P78369]

biological target: T12, LIN7C, Q9NUP9; experiment: holdup assay; design: key: below the threshold = too weak to quantify, mostly under pKd 3.1 to 4; conditions: plain residues with an end cap or a label only (N-terminal biotin on a linker: ado-ado)

pKd	Binder
below the threshold	SKQFDKNAYV [CLDN10, P78369]

biological target: FRMPD4, Q14CM0; experiment: holdup assay; design: key: below the threshold = too weak to quantify, mostly under pKd 3.1 to 4; conditions: plain residues with an end cap or a label only (N-terminal biotin on a linker: ado-ado)
Sequence (Q14CM0 67-160): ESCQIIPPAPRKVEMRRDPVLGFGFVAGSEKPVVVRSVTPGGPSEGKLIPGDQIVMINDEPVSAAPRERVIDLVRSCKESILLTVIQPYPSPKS

pKd	Binder
3.59	SKQFDKNAYV [CLDN10, P78369]

biological target: GOPC, Q9HD26; experiment: holdup assay; design: key: below the threshold = too weak to quantify, mostly under pKd 3.1 to 4; conditions: plain residues with an end cap or a label only (N-terminal biotin on a linker: ado-ado)

pKd	Binder
below the threshold	SKQFDKNAYV [CLDN10, P78369]

biological target: T13, SIPA1L2, Q9P2F8; experiment: holdup assay; design: key: below the threshold = too weak to quantify, mostly under pKd 3.1 to 4; conditions: plain residues with an end cap or a label only (N-terminal biotin on a linker: ado-ado)

pKd	Binder
below the threshold	SKQFDKNAYV [CLDN10, P78369]

biological target: GRIP2_5, Q9C0E4; experiment: holdup assay; design: key: below the threshold = too weak to quantify, mostly under pKd 3.1 to 4; conditions: plain residues with an end cap or a label only (N-terminal biotin on a linker: ado-ado)
Sequence (Q9C0E4 544-642): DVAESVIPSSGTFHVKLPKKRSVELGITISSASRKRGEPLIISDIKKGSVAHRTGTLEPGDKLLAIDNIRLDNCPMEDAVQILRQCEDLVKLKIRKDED

pKd	Binder
below the threshold	SKQFDKNAYV [CLDN10, P78369]

biological target: DLG4_2, P78352; experiment: holdup assay; design: key: below the threshold = too weak to quantify, mostly under pKd 3.1 to 4; conditions: plain residues with an end cap or a label only (N-terminal biotin on a linker: ado-ado)
Sequence (P78352 155-259): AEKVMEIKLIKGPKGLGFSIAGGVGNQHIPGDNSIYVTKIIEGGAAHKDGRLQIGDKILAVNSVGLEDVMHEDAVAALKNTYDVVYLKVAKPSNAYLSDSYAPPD

pKd	Binder
3.52	SKQFDKNAYV [CLDN10, P78369]
